B1: EPB41L3 (parent)
chain: SDYISEFRFAPNHTKELEDKVIEL
B2: FCHO1 (parent)
chain: FSDPSQSDPETKDFWLNMAALTEA
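Note: lentivirally expressed fusions sorted by FACS into six bins by GFP to DsRed ratio, PSI derived from sequencing read proportions per bin multiplied by bin number.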

The first data set covers variants of B1. Kind of data set: protein stability index of a GFP-peptide fusion (GPS, HEK-293T) (PSI 1-6); higher = more stable. Conditions: c terminus: a fixed tail appended.
Regarding SHYISEFRFAPNHTKELEDKVIEL [D2H], the protein stability index was determined as 1.85.
Same read-out and setting: for SFYISEFRFAPNHTKELEDKVIEL [D2F] the value was 2.02.
Still for that read-out and setting: for SEYISEFRFAPNHTKELEDKVIEL [D2E] the value was 2.48.
On the same count and under the same terms, for SSYISEFRFAPNHTKELEDKVIEL [D2S] the value was 2.11; for SPYISEFRFAPNHTKELEDKVIEL [D2P], 2.29; for STYISEFRFAPNHTKELEDKVIEL [D2T], 1.95.
Consider SDYDSEFRFAPNHTKELEDKVIEL [I4D], for which the protein stability index was determined as 4.2.
Same read-out and setting: the same measure for SDYHSEFRFAPNHTKELEDKVIEL [I4H]: 3.96; for SDYFSEFRFAPNHTKELEDKVIEL [I4F]: 2.77.
With SDYSSEFRFAPNHTKELEDKVIEL [I4S], the protein stability index was 3.49.
With SDYGSEFRFAPNHTKELEDKVIEL [I4G], the protein stability index turned out to be 4.11.
The same measure, in the same setting: for SDYQSEFRFAPNHTKELEDKVIEL [I4Q] the value was 3.98; for SDYKSEFRFAPNHTKELEDKVIEL [I4K], 3.23; for SDYWSEFRFAPNHTKELEDKVIEL [I4W], 3.03.
Regarding SDYVSEFRFAPNHTKELEDKVIEL [I4V], the protein stability index stood at 3.02.
Still for that read-out and setting: the same measure for SDYCSEFRFAPNHTKELEDKVIEL [I4C]: 3.6; for SDYASEFRFAPNHTKELEDKVIEL [I4A]: 3.63.
Same read-out and setting: the same measure for SDYYSEFRFAPNHTKELEDKVIEL [I4Y]: 3.65.
Same read-out and setting: for SDYPSEFRFAPNHTKELEDKVIEL [I4P] the value was 3.76; for SDYLSEFRFAPNHTKELEDKVIEL [I4L], 2.36.
Turning to SDYNSEFRFAPNHTKELEDKVIEL [I4N], the protein stability index worked out at 4.27.
Same read-out and setting: the same measure for SDYMSEFRFAPNHTKELEDKVIEL [I4M]: 3.18; for SDYESEFRFAPNHTKELEDKVIEL [I4E]: 3.92; for SDYTSEFRFAPNHTKELEDKVIEL [I4T]: 2.65.
On the same count and under the same terms, the same measure for SDYRSEFRFAPNHTKELEDKVIEL [I4R]: 3.13.

Another data set covers variants of B2. Described as above. Conditions: c terminus: a fixed tail appended.
As to FSDPSQSDPETKDFWLNMAAITEA [L21I], the protein stability index was 3.
On the same count and under the same terms, for FSDPSQSDPETKMFWLNMAALTEA [D13M] the value was 1.43; for FSDPSQSDPETKQFWLNMAALTEA [D13Q], 2.08; for FSDPSQSDPETKEFWLNMAALTEA [D13E], 3.62.
On the same count and under the same terms, the same measure for FSDPSQSDPETKDFWLNMAALAEA [T22A]: 2.87.
Regarding FSNPSQSDPETKDFWLNMAALTEA [D3N], the protein stability index is 2.02.
Still for that read-out and setting: the same measure for FSAPSQSDPETKDFWLNMAALTEA [D3A]: 1.45; for FCDPSQSDPETKDFWLNMAALTEA [S2C]: 1.69; for FGDPSQSDPETKDFWLNMAALTEA [S2G]: 2.32.
On to FDDPSQSDPETKDFWLNMAALTEA [S2D], for which the protein stability index was found to be 4.53.
Same read-out and setting: for FTDPSQSDPETKDFWLNMAALTEA [S2T] the value was 2.11; for FRDPSQSDPETKDFWLNMAALTEA [S2R], 3.79; for FSDPSQSDPETKDFWLNMAHLTEA [A20H], 2.82.
The same measure, in the same setting: for FSDPSQSDPETKDFWLNMAILTEA [A20I] the value was 2.38; for FSDPSQSDPETKDFWLQMAALTEA [N17Q], 3.39; for FSDPSQSDPETKDFWLRMAALTEA [N17R], 3.06.
On the same count and under the same terms, for FSDPSQSDPETKDFWLYMAALTEA [N17Y] the value was 2.8; for FSDPSQSDPETKDFWLFMAALTEA [N17F], 1.82; for FSDPSQSDPETKDFWLVMAALTEA [N17V], 1.88.
Regarding FSDPWQSDPETKDFWLNMAALTEA [S5W], the protein stability index was 1.74.
Regarding FSDPRQSDPETKDFWLNMAALTEA [S5R], the protein stability index came out at 2.21.
On the same count and under the same terms, the same measure for FSDPMQSDPETKDFWLNMAALTEA [S5M]: 3.35.
The same measure, in the same setting: for FSDPAQSDPETKDFWLNMAALTEA [S5A] the value was 3.03.
Same read-out and setting: for FSDPSQSDPETADFWLNMAALTEA [K12A] the value was 3.25.
For the variant FSDPSQSDPETFDFWLNMAALTEA [K12F], the protein stability index came out at 2.6.
In the case of FSDPSQSDPETIDFWLNMAALTEA [K12I], the protein stability index amounted to 3.11.
Regarding FSDPSQSDPETKDIWLNMAALTEA [F14I], the protein stability index is 3.61.
Take FSDPSQSDPETKDCWLNMAALTEA [F14C]: the protein stability index is 4.11.
The same measure, in the same setting: for FSDPSQSDPETKDRWLNMAALTEA [F14R] the value was 4.62.
Same read-out and setting: for FSDPSQSDPETKDWWLNMAALTEA [F14W] the value was 3.87; for FSDPSQSDWETKDFWLNMAALTEA [P9W], 2.4; for FSDPSQSDHETKDFWLNMAALTEA [P9H], 2.73.
On the same count and under the same terms, the same measure for FSDKSQSDPETKDFWLNMAALTEA [P4K]: 2.04.
Take FSDNSQSDPETKDFWLNMAALTEA [P4N]: the protein stability index is 2.04.
Still for that read-out and setting: the same measure for FSDSSQSDPETKDFWLNMAALTEA [P4S]: 2.26; for FSDDSQSDPETKDFWLNMAALTEA [P4D]: 3.49.
Same read-out and setting: for FSDPSSSDPETKDFWLNMAALTEA [Q6S] the value was 2.66; for FSDPSHSDPETKDFWLNMAALTEA [Q6H], 2.59; for FSDPSPSDPETKDFWLNMAALTEA [Q6P], 3.16.
On the same count and under the same terms, the same measure for FSDPSISDPETKDFWLNMAALTEA [Q6I]: 2.4; for CSDPSQSDPETKDFWLNMAALTEA [F1C]: 4.02; for DSDPSQSDPETKDFWLNMAALTEA [F1D]: 5.36.
In the case of GSDPSQSDPETKDFWLNMAALTEA [F1G], the protein stability index amounted to 4.86.
The same measure, in the same setting: the same measure for TSDPSQSDPETKDFWLNMAALTEA [F1T]: 4.87; for FSDPSQSMPETKDFWLNMAALTEA [D8M]: 3.04.
The same measure, in the same setting: for FSDPSQSCPETKDFWLNMAALTEA [D8C] the value was 2.62; for FSDPSQSDPETKDFSLNMAALTEA [W15S], 4.82; for FSDPSQEDPETKDFWLNMAALTEA [S7E], 3.69.
FSDPSQNDPETKDFWLNMAALTEA [S7N]: the protein stability index was 2.86.
The same measure, in the same setting: for FSDPSQADPETKDFWLNMAALTEA [S7A] the value was 3.37; for FSDPSQSDPETKDFWINMAALTEA [L16I], 2.32.
Still for that read-out and setting: the same measure for FSDPSQSDPEYKDFWLNMAALTEA [T11Y]: 2.06; for FSDPSQSDPEWKDFWLNMAALTEA [T11W]: 1.74; for FSDPSQSDPEEKDFWLNMAALTEA [T11E]: 4.2.
In the case of FSDPSQSDPEVKDFWLNMAALTEA [T11V], the protein stability index stood at 2.69.
Still for that read-out and setting: the same measure for FSDPSQSDPETKDFWLNYAALTEA [M18Y]: 3.59; for FSDPSQSDPETKDFWLNRAALTEA [M18R]: 3.11; for FSDPSQSDPETKDFWLNFAALTEA [M18F]: 2.78.
The same measure, in the same setting: for FSDPSQSDPETKDFWLNMTALTEA [A19T] the value was 1.79; for FSDPSQSDPETKDFWLNMGALTEA [A19G], 2.01; for FSDPSQSDPETKDFWLNMAALTRA [E23R], 3.31.
Same read-out and setting: the same measure for FSDPSQSDPETKDFWLNMAALTIA [E23I]: 1.9.
With FSDPSQSDPETKDFWLNMAALTKA [E23K], the protein stability index turned out to be 2.3.
Still for that read-out and setting: the same measure for FSDPSQSDPETKDFWLNMAALTEE [A24E]: 3.3; for FSDPSQSDPETKDFWLNMAALTED [A24D]: 2.8.
Still for that read-out and setting: the same measure for FSDPSQSDPETKDFWLNMAALTEF [A24F]: 2.56.
With FSDPSQSDPETKDFWLNMAALTET [A24T], the protein stability index amounted to 2.52.
On the same count and under the same terms, for FSDPSQSDPETKDFWLNMAALTEI [A24I] the value was 1.92; for FSDPSQSDPGTKDFWLNMAALTEA [E10G], 2.03.

(Values after the supplement of paper PMC10567573.)
